Measurements from PMC5603418 (The FEBS journal, 2017).

Assays:
[1] = target: T1, Bdellovibrio bacteriovorus proline utilization A (BbPutA) (Bdellovibrio bacteriovorus, UniProt Q6MNK1); test: X-ray crystal structure, […] Å, of the covalently inactivated enzyme; type: binding
T1 sequence (Q6MNK1 1-982): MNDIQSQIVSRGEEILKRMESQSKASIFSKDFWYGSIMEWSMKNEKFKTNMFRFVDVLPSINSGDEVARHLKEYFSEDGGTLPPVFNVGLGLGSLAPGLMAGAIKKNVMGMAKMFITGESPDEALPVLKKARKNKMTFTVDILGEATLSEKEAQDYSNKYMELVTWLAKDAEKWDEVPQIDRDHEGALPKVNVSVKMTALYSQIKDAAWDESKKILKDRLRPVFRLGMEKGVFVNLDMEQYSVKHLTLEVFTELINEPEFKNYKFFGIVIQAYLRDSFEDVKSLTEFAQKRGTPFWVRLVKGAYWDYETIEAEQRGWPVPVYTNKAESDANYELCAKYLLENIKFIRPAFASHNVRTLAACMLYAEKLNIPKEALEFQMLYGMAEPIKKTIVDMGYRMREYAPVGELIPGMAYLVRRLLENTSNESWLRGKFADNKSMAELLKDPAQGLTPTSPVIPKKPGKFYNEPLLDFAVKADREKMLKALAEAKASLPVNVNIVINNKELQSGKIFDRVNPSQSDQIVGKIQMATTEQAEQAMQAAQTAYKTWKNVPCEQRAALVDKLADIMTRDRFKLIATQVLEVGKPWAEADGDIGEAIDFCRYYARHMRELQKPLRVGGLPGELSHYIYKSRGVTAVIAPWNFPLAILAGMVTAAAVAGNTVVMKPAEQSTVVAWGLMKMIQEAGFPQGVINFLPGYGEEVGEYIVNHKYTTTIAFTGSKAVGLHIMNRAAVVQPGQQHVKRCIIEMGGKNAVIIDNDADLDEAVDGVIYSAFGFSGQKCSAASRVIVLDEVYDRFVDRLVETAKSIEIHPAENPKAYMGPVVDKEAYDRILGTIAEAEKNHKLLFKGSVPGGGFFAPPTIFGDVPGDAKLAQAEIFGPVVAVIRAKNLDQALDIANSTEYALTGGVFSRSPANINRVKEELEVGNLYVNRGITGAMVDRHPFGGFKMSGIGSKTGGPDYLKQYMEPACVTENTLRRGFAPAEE

[2] = target: Desulfovibrio vulgaris proline utilization A (Desulfovibrio vulgaris str. Hildenborough); test: SAXS
[3] = target: the molecule itself; test: AUC
[4] = target: the molecule itself; test: SAXS
[5] = target: the molecule itself; test: AUC; remark: listed apart in the source

In the case of `C#CCNCC(=O)O` [compound 1, N-propargylglycine], the “X-ray crystal structure, 2.2 Å, of the covalently inactivated enzyme” value [1] is reported as 3-carbon link between Lys196 and the N5 of the FAD consistent with the presence of a covalent NPPG modification.

In the case of “Desulfovibrio vulgaris proline utilization A (enzyme)”, the stoichiometry N [2] is reported as 2.

B1: Bradyrhizobium japonicum proline utilization A (enzyme, UniProt Q89E26 1-999, looked up)
chain: MPNIPPPFTAPYAPDDAEIAARLLPASHLSPPQEARIHRTATRLIEAIRKRDDRLGGVEDMLREFALSTKEGLALMVLAEALLRVPDARTADQFIEDKLGEGDFIHHETKSTAFLVNASAWALGLSARVIQPGETPDGTIGRLVKRLGAPAVRTATRQAMRLMGNHFVLGETIEQALERGKPRSGQKTRYSFDMLGEGARTAADARRYFDAYASAIETIGKAAGNHALPDRPGISVKLSALHPRFEAISRARVMVELVPQLLDLAQRAKAHDLNFTVDAEEADRLELSLDVIAATLADPSLKGWDGFGLAIQAYQKRASAVIDYVDALARAHDRKLMVRLVKGAYWDTEIKRAQERGLDGYPVFTRKAMTDLNYVACASKLLALRPRIFPQFATHNALTVATVLEMAEGSSGFEFQRLHGMGEALYEQLAKDHADIAYRTYAPVGSHRDLLAYLVRRLLENGANSSFVAQAADYRVPVPALLQRPADAIVRPQAAAHPRIPLPCDLFAPERRNSRGVEFGARTALDQLLTDVKAETGDLKPIADATPDQAHAAVAAARAGFAGWSRTPAGIRAAALEQAAHLLESRSAHFIALLQREGGKTLDDALSELREAADFCRYYAAQGRKLFGSETAMPGPTGESNALTMRGRGVFVAISPWNFPLAIFLGQVTAALMAGNSVVAKPAEQTPRIAREAVALLHEAGIPKSALYLVTGDGRIGAALTAHPDIAGVVFTGSTEVARSINRALAAKDGPIVPLIAETGGINAMIADATALPEQVADDVVTSAFRSAGQRCSALRLLFVQEDVADRMIEMVAGAARELKIGDPSDVATHVGPVIDVEAKQRLDAHIARMKTEARLHFAGPAPEGCFVAPHIFELTEAGQLTEEVFGPILHVVRYRPENLERVLRAIERTGYGLTLGVHSRIDDSIEAIIDRVQVGNIYVNRNMIGAVVGVQPFGGNGLSGTGPKAGGPHYLARFATEQTVTINTAAAGGNAALLAGEE
In the case of B1, the “stoichiometry N” value [3] is reported as 4.

B2: Bdellovibrio bacteriovorus proline utilization A (enzyme, Bdellovibrio bacteriovorus HD100, UniProt Q6MNK1 1-982, looked up)
chain: T1 sequence (Q6MNK1 1-982)
With B2 the “stoichiometry N” value [4] was 2.

B3: Bdellovibrio bacteriovorus proline utilization A inactivated by N-propargylglycine (enzyme, Bdellovibrio bacteriovorus HD100, UniProt Q6MNK1 1-982, looked up)
chain: T1 sequence (Q6MNK1 1-982)
modifications: Lys196 covalently linked to the N5 atom of the FAD by a 3-carbon link (inactivation by N-propargylglycine)
In the case of B3, the “stoichiometry N” value [5] is reported as 2.
